Results taken from patent publication US20230357348A1 (AstraZeneca / MedImmune, published 2023).
Starred links: 1 amine or outer side, 2 acyl side, 3 side chain; linkers in the order of their positions; H or OH if unused. Non-standard residues stand in square brackets, D forms with d. Groups on a side chain read outwards from the residue. No end group written: not given here. *: point of attachment. C20 diacid = O=C(O)CCCCCCCCCCCCCCCCCCC(=O)*; C18 diacid = O=C(O)CCCCCCCCCCCCCCCCC(=O)*; γGlu = O=C(O)[C@H](CCC(=O)[*:2])N[*:1]; αMeF = C[C@](N)(Cc1ccccc1)C(=O)O; NMeQ = CN[C@@H](CCC(N)=O)C(=O)O; AEEA = NCCOCCOCC(=O)O; Aib = CC(C)(N)C(=O)O

Assays:
Experiment in all cases: cell-based or functional assay
[1] = target: human glucagon receptor (hGCGR) (human, UniProt P47871 26-477)
[2] = target: human GLP-1 receptor (hGLP-1R) (human, UniProt P43220 24-463)
[3] = target: human GLP-1 receptor (human, UniProt P43220 24-463)
[4] = target: human glucagon receptor (human, UniProt P47871 26-477)
Sequence of human glucagon receptor (P47871 26-477): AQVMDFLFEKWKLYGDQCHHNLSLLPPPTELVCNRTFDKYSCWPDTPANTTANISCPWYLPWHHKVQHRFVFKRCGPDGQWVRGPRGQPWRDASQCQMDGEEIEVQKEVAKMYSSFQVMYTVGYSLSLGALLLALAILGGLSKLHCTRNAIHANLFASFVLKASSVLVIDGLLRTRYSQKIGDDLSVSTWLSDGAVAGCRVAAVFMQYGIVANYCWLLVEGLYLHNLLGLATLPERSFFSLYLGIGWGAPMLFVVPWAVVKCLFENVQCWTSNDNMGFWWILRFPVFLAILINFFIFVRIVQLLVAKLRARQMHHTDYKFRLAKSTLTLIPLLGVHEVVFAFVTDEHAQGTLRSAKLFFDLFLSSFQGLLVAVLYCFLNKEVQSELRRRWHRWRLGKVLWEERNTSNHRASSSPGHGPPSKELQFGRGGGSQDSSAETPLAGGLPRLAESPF

Sequence of human glucagon receptor (hGCGR) (P47871 26-477): as above

Binder | hGluc-R EC50 (pM); cAMP production [1] [pM] | hGLP-1R EC50 (pM); cAMP production [2] [pM] | hGLP-1R EC50 (pM), cAMP [3] [pM] | hGluc-R EC50 (pM), cAMP [4] [pM]
H[Aib]HGS[αMeF]TSDVSK[αMeF]LDSRAAQD[αMeF]VK([AEEA-AEEA-γGlu-C18 diacid])SIANT-NH2 (not fully specified) [Peptide 379] | 85.7 | 71.8 | – | –
HS[NMeQ]GS[αMeF]TSDVSK[αMeF]LDSRAAK([AEEA-AEEA-γGlu-C18 diacid])D[αMeF]VQ[Aib]IANT-NH2 (N-terminus assumed; SMILES CC[C@H](C)[C@H](NC(=O)C(C)(C)NC(=O)[C@H](CCC(N)=O)NC(=O)[C@@H](NC(=O)[C@](C)(Cc1ccccc1)NC(=O)[C@H](CC(=O)O)NC(=O)[C@H](CCCCNC(=O)COCCOCCNC(=O)COCCOCCNC(=O)CC[C@H](NC(=O)CCCCCCCCCCCCCCCCC(=O)O)C(=O)O)NC(=O)[C@H](C)NC(=O)[C@H](C)NC(=O)[C@H](CCCNC(=N)N)NC(=O)[C@H](CO)NC(=O)[C@H](CC(=O)O)NC(=O)[C@H](CC(C)C)NC(=O)[C@](C)(Cc1ccccc1)NC(=O)[C@H](CCCCN)NC(=O)[C@H](CO)NC(=O)[C@@H](NC(=O)[C@H](CC(=O)O)NC(=O)[C@H](CO)NC(=O)[C@@H](NC(=O)[C@](C)(Cc1ccccc1)NC(=O)[C@H](CO)NC(=O)CNC(=O)[C@H](CCC(N)=O)N(C)C(=O)[C@H](CO)NC(=O)[C@@H](N)Cc1c[nH]cn1)[C@@H](C)O)C(C)C)C(C)C)C(=O)N[C@@H](C)C(=O)N[C@@H](CC(N)=O)C(=O)N[C@H](C(N)=O)[C@@H](C)O) [Peptide 325] | – | – | 929 | > 25500
H[Aib]QGTFTSDYSK[αMeF]LDSRRAK([γGlu-C18 diacid])DFVQWLL[Aib]E-OH (N-terminus assumed; SMILES CC(C)C[C@H](NC(=O)[C@H](Cc1c[nH]c2ccccc12)NC(=O)[C@H](CCC(N)=O)NC(=O)[C@@H](NC(=O)[C@H](Cc1ccccc1)NC(=O)[C@H](CC(=O)O)NC(=O)[C@H](CCCCNC(=O)CC[C@H](NC(=O)CCCCCCCCCCCCCCCCC(=O)O)C(=O)O)NC(=O)[C@H](C)NC(=O)[C@H](CCCNC(=N)N)NC(=O)[C@H](CCCNC(=N)N)NC(=O)[C@H](CO)NC(=O)[C@H](CC(=O)O)NC(=O)[C@H](CC(C)C)NC(=O)[C@](C)(Cc1ccccc1)NC(=O)[C@H](CCCCN)NC(=O)[C@H](CO)NC(=O)[C@H](Cc1ccc(O)cc1)NC(=O)[C@H](CC(=O)O)NC(=O)[C@H](CO)NC(=O)[C@@H](NC(=O)[C@H](Cc1ccccc1)NC(=O)[C@@H](NC(=O)CNC(=O)[C@H](CCC(N)=O)NC(=O)C(C)(C)NC(=O)[C@@H](N)Cc1c[nH]cn1)[C@@H](C)O)[C@@H](C)O)C(C)C)C(=O)N[C@@H](CC(C)C)C(=O)NC(C)(C)C(=O)N[C@@H](CCC(=O)O)C(=O)O) [Peptide 340] | – | – | 312 | 94.7
H[Aib]QGTFTSDVSK[αMeF]LDSRAAKDFVQWIANT-NH2 (not fully specified (residue 20)) [Peptide 343] | – | – | 198 | 19600
H[Aib]QGTFTSDVSK[αMeF]LDSERAK([AEEA-AEEA-γGlu-C18 diacid])DFVAWLEAGG-OH (N-terminus assumed; SMILES CC(C)C[C@H](NC(=O)[C@H](Cc1c[nH]c2ccccc12)NC(=O)[C@H](C)NC(=O)[C@@H](NC(=O)[C@H](Cc1ccccc1)NC(=O)[C@H](CC(=O)O)NC(=O)[C@H](CCCCNC(=O)COCCOCCNC(=O)COCCOCCNC(=O)CC[C@H](NC(=O)CCCCCCCCCCCCCCCCC(=O)O)C(=O)O)NC(=O)[C@H](C)NC(=O)[C@H](CCCNC(=N)N)NC(=O)[C@H](CCC(=O)O)NC(=O)[C@H](CO)NC(=O)[C@H](CC(=O)O)NC(=O)[C@H](CC(C)C)NC(=O)[C@](C)(Cc1ccccc1)NC(=O)[C@H](CCCCN)NC(=O)[C@H](CO)NC(=O)[C@@H](NC(=O)[C@H](CC(=O)O)NC(=O)[C@H](CO)NC(=O)[C@@H](NC(=O)[C@H](Cc1ccccc1)NC(=O)[C@@H](NC(=O)CNC(=O)[C@H](CCC(N)=O)NC(=O)C(C)(C)NC(=O)[C@@H](N)Cc1c[nH]cn1)[C@@H](C)O)[C@@H](C)O)C(C)C)C(C)C)C(=O)N[C@@H](CCC(=O)O)C(=O)N[C@@H](C)C(=O)NCC(=O)NCC(=O)O) [Peptide 522] | – | – | 508 | 6360
H[Aib]QGTFTSDVSK[αMeF]LDSERAK([AEEA-AEEA-γGlu-C20 diacid])DFVAWLEAGG-OH (N-terminus assumed; SMILES CC(C)C[C@H](NC(=O)[C@H](Cc1c[nH]c2ccccc12)NC(=O)[C@H](C)NC(=O)[C@@H](NC(=O)[C@H](Cc1ccccc1)NC(=O)[C@H](CC(=O)O)NC(=O)[C@H](CCCCNC(=O)COCCOCCNC(=O)COCCOCCNC(=O)CC[C@H](NC(=O)CCCCCCCCCCCCCCCCCCC(=O)O)C(=O)O)NC(=O)[C@H](C)NC(=O)[C@H](CCCNC(=N)N)NC(=O)[C@H](CCC(=O)O)NC(=O)[C@H](CO)NC(=O)[C@H](CC(=O)O)NC(=O)[C@H](CC(C)C)NC(=O)[C@](C)(Cc1ccccc1)NC(=O)[C@H](CCCCN)NC(=O)[C@H](CO)NC(=O)[C@@H](NC(=O)[C@H](CC(=O)O)NC(=O)[C@H](CO)NC(=O)[C@@H](NC(=O)[C@H](Cc1ccccc1)NC(=O)[C@@H](NC(=O)CNC(=O)[C@H](CCC(N)=O)NC(=O)C(C)(C)NC(=O)[C@@H](N)Cc1c[nH]cn1)[C@@H](C)O)[C@@H](C)O)C(C)C)C(C)C)C(=O)N[C@@H](CCC(=O)O)C(=O)N[C@@H](C)C(=O)NCC(=O)NCC(=O)O) [Peptide 523] | – | – | 615 | > 24700
H[Aib]QGTFTSDVSE[αMeF]LDSERAK([AEEA-AEEA-γGlu-C18 diacid])DFVRWLEAGG-OH (not fully specified) [Peptide 524] | – | – | 366 | > 24400
H[Aib]QGTFTSDVSK[αMeF]LDSERAK([AEEA-AEEA-γGlu-C18 diacid])DFVQWLEA[Aib]G-OH (N-terminus assumed; SMILES CC(C)C[C@H](NC(=O)[C@H](Cc1c[nH]c2ccccc12)NC(=O)[C@H](CCC(N)=O)NC(=O)[C@@H](NC(=O)[C@H](Cc1ccccc1)NC(=O)[C@H](CC(=O)O)NC(=O)[C@H](CCCCNC(=O)COCCOCCNC(=O)COCCOCCNC(=O)CC[C@H](NC(=O)CCCCCCCCCCCCCCCCC(=O)O)C(=O)O)NC(=O)[C@H](C)NC(=O)[C@H](CCCNC(=N)N)NC(=O)[C@H](CCC(=O)O)NC(=O)[C@H](CO)NC(=O)[C@H](CC(=O)O)NC(=O)[C@H](CC(C)C)NC(=O)[C@](C)(Cc1ccccc1)NC(=O)[C@H](CCCCN)NC(=O)[C@H](CO)NC(=O)[C@@H](NC(=O)[C@H](CC(=O)O)NC(=O)[C@H](CO)NC(=O)[C@@H](NC(=O)[C@H](Cc1ccccc1)NC(=O)[C@@H](NC(=O)CNC(=O)[C@H](CCC(N)=O)NC(=O)C(C)(C)NC(=O)[C@@H](N)Cc1c[nH]cn1)[C@@H](C)O)[C@@H](C)O)C(C)C)C(C)C)C(=O)N[C@@H](CCC(=O)O)C(=O)N[C@@H](C)C(=O)NC(C)(C)C(=O)NCC(=O)O) [Peptide 525] | – | – | 177 | 2450
H[Aib]QGTFTSDVSK[αMeF]LDSERAK([AEEA-AEEA-γGlu-C18 diacid])DFVAWLEA[Aib]G-OH (N-terminus assumed; SMILES CC(C)C[C@H](NC(=O)[C@H](Cc1c[nH]c2ccccc12)NC(=O)[C@H](C)NC(=O)[C@@H](NC(=O)[C@H](Cc1ccccc1)NC(=O)[C@H](CC(=O)O)NC(=O)[C@H](CCCCNC(=O)COCCOCCNC(=O)COCCOCCNC(=O)CC[C@H](NC(=O)CCCCCCCCCCCCCCCCC(=O)O)C(=O)O)NC(=O)[C@H](C)NC(=O)[C@H](CCCNC(=N)N)NC(=O)[C@H](CCC(=O)O)NC(=O)[C@H](CO)NC(=O)[C@H](CC(=O)O)NC(=O)[C@H](CC(C)C)NC(=O)[C@](C)(Cc1ccccc1)NC(=O)[C@H](CCCCN)NC(=O)[C@H](CO)NC(=O)[C@@H](NC(=O)[C@H](CC(=O)O)NC(=O)[C@H](CO)NC(=O)[C@@H](NC(=O)[C@H](Cc1ccccc1)NC(=O)[C@@H](NC(=O)CNC(=O)[C@H](CCC(N)=O)NC(=O)C(C)(C)NC(=O)[C@@H](N)Cc1c[nH]cn1)[C@@H](C)O)[C@@H](C)O)C(C)C)C(C)C)C(=O)N[C@@H](CCC(=O)O)C(=O)N[C@@H](C)C(=O)NC(C)(C)C(=O)NCC(=O)O) [Peptide 526] | – | – | 194 | 690
HXHGTFTSDVSKXLDSQAAQDFVXWIANT (Aib at 2; αMePhe at 13; K(γE-C18diacid)24; C-terminal amide) [Peptide 346] | – | 7320 | – | –
HXHGSXTSDVSKXLDSQAAQDFVXWIANT (Aib at 2; αMePhe at 6 and 13; K(O2Oc-O2Oc-γE-C18diacid)24; C-terminal amide) [Peptide 358] | – | 74.9 | – | –
H[Aib]HGS[αMeF]TSDVSK[αMeF]LDSRAAQDFVK([AEEA-AEEA-γGlu-γGlu-C18 diacid])WIANT-NH2 (N-terminus assumed; SMILES CC[C@H](C)[C@H](NC(=O)[C@H](Cc1c[nH]c2ccccc12)NC(=O)[C@H](CCCCNC(=O)COCCOCCNC(=O)COCCOCCNC(=O)CC[C@H](NC(=O)CC[C@H](NC(=O)CCCCCCCCCCCCCCCCC(=O)O)C(=O)O)C(=O)O)NC(=O)[C@@H](NC(=O)[C@H](Cc1ccccc1)NC(=O)[C@H](CC(=O)O)NC(=O)[C@H](CCC(N)=O)NC(=O)[C@H](C)NC(=O)[C@H](C)NC(=O)[C@H](CCCNC(=N)N)NC(=O)[C@H](CO)NC(=O)[C@H](CC(=O)O)NC(=O)[C@H](CC(C)C)NC(=O)[C@](C)(Cc1ccccc1)NC(=O)[C@H](CCCCN)NC(=O)[C@H](CO)NC(=O)[C@@H](NC(=O)[C@H](CC(=O)O)NC(=O)[C@H](CO)NC(=O)[C@@H](NC(=O)[C@](C)(Cc1ccccc1)NC(=O)[C@H](CO)NC(=O)CNC(=O)[C@H](Cc1c[nH]cn1)NC(=O)C(C)(C)NC(=O)[C@@H](N)Cc1c[nH]cn1)[C@@H](C)O)C(C)C)C(C)C)C(=O)N[C@@H](C)C(=O)N[C@@H](CC(N)=O)C(=O)N[C@H](C(N)=O)[C@@H](C)O) [Peptide 362] | 42.8 | – | – | –
